Measured values: PMC4569521 (Journal of molecular biology, 2015)
Where no end group is shown, it is not given here. fluorescein = fluorescein label at the N-terminus

Biological target: T1, N-domain of ClpX (residue 1–64) (E. coli, UniProt P0A6H1 1-64)
T1 sequence (looked up): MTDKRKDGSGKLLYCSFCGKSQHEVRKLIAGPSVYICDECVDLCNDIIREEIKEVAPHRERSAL
Experiment: fluorescence polarisation

B1: fluorescein-labeled E-tag peptide (MuA residues 614–633) (peptide)
peptide: fluorescein-ESRIVGIFRPSGNTERVKNQ
- Kd: ~380 µM
